B1: MC1 (masked mAb1 comprising MM1 and CL1) (antibody, human IgG2, kappa)
heavy: QVQLVQSGAEVKKPGASVKVSCKASGYTFTGKYMHWVRQAPGQGLEWMGWINPDSGGTNYAQKFQGRVTMTRDTSIATAYMELNRLRSDDTAVYYCARDQPLGYCTNGVCSYFDYWGQGTLVTVSSASTKGPSVFPLAPCSRSTSESTAALGCLVKDYFPEPVTVSWNSGALTSGVHTFPAVLQSSGLYSLSSVVTVPSSNFGTQTYTCNVDHKPSNTKVDKTVERKCCVECPPCPAPPVAGPSVFLFPPKPKDTLMISRTPEVTCVVVDVSHEDPEVQFNWYVDGVEVHNAKTKPREEQFNSTFRVVSVLTVVHQDWLNGKEYKCKVSNKGLPAPIEKTISKTKGQPREPQVYTLPPSREEMTKNQVSLTCLVKGFYPSDIAVEWESNGQPENNYKTTPPMLDSDGSFFLYSKLTVDKSRWQQGNVFSCSVMHEALHNHYTQKSLSLSPGK
light: EDEPGIRCYYNDDTCQYGGGPLGLAGSGGSDIQMTQSPSSVSASVGDRVTITCRASQGIYSWLAWYQQKPGKAPNLLIYTASTLQSGVPSRFSGSGSGTDFTLTISSLQPEDFATYYCQQANIFPLTFGGGTKVEIKRTVAAPSVFIFPPSDEQLKSGTASVVCLLNNFYPREAKVQWKVDNALQSGNSQESVTEQDSKDSTYSLSSTLTLSKADYEKHKVYACEVTHQGLSSPVTKSFNRGEC
notes: Conditionally-active (masked) antibody
B2: MC2 (masked mAb1 comprising MM2 and CL1) (antibody, human IgG2, kappa)
heavy: QVQLVQSGAEVKKPGASVKVSCKASGYTFTGKYMHWVRQAPGQGLEWMGWINPDSGGTNYAQKFQGRVTMTRDTSIATAYMELNRLRSDDTAVYYCARDQPLGYCTNGVCSYFDYWGQGTLVTVSSASTKGPSVFPLAPCSRSTSESTAALGCLVKDYFPEPVTVSWNSGALTSGVHTFPAVLQSSGLYSLSSVVTVPSSNFGTQTYTCNVDHKPSNTKVDKTVERKCCVECPPCPAPPVAGPSVFLFPPKPKDTLMISRTPEVTCVVVDVSHEDPEVQFNWYVDGVEVHNAKTKPREEQFNSTFRVVSVLTVVHQDWLNGKEYKCKVSNKGLPAPIEKTISKTKGQPREPQVYTLPPSREEMTKNQVSLTCLVKGFYPSDIAVEWESNGQPENNYKTTPPMLDSDGSFFLYSKLTVDKSRWQQGNVFSCSVMHEALHNHYTQKSLSLSPGK
light: EVGSYYVCPVRFQYFCEEGGGPLGLAGSGGSDIQMTQSPSSVSASVGDRVTITCRASQGIYSWLAWYQQKPGKAPNLLIYTASTLQSGVPSRFSGSGSGTDFTLTISSLQPEDFATYYCQQANIFPLTFGGGTKVEIKRTVAAPSVFIFPPSDEQLKSGTASVVCLLNNFYPREAKVQWKVDNALQSGNSQESVTEQDSKDSTYSLSSTLTLSKADYEKHKVYACEVTHQGLSSPVTKSFNRGEC
notes: as for B1
B3: MC3 (masked mAb1 comprising MM1 and CL2) (antibody, human IgG2, kappa)
heavy: QVQLVQSGAEVKKPGASVKVSCKASGYTFTGKYMHWVRQAPGQGLEWMGWINPDSGGTNYAQKFQGRVTMTRDTSIATAYMELNRLRSDDTAVYYCARDQPLGYCTNGVCSYFDYWGQGTLVTVSSASTKGPSVFPLAPCSRSTSESTAALGCLVKDYFPEPVTVSWNSGALTSGVHTFPAVLQSSGLYSLSSVVTVPSSNFGTQTYTCNVDHKPSNTKVDKTVERKCCVECPPCPAPPVAGPSVFLFPPKPKDTLMISRTPEVTCVVVDVSHEDPEVQFNWYVDGVEVHNAKTKPREEQFNSTFRVVSVLTVVHQDWLNGKEYKCKVSNKGLPAPIEKTISKTKGQPREPQVYTLPPSREEMTKNQVSLTCLVKGFYPSDIAVEWESNGQPENNYKTTPPMLDSDGSFFLYSKLTVDKSRWQQGNVFSCSVMHEALHNHYTQKSLSLSPGK
light: EDEPGIRCYYNDDTCQYSGRSAGGGGPLGLAGSGGSDIQMTQSPSSVSASVGDRVTITCRASQGIYSWLAWYQQKPGKAPNLLIYTASTLQSGVPSRFSGSGSGTDFTLTISSLQPEDFATYYCQQANIFPLTFGGGTKVEIKRTVAAPSVFIFPPSDEQLKSGTASVVCLLNNFYPREAKVQWKVDNALQSGNSQESVTEQDSKDSTYSLSSTLTLSKADYEKHKVYACEVTHQGLSSPVTKSFNRGEC
notes: as for B1
B4: MMP9-activated (MC1/MC2) (antibody, not shown: small tags and cut ends)
heavy: QVQLVQSGAEVKKPGASVKVSCKASGYTFTGKYMHWVRQAPGQGLEWMGWINPDSGGTNYAQKFQGRVTMTRDTSIATAYMELNRLRSDDTAVYYCARDQPLGYCTNGVCSYFDYWGQGTLVTVSSASTKGPSVFPLAPCSRSTSESTAALGCLVKDYFPEPVTVSWNSGALTSGVHTFPAVLQSSGLYSLSSVVTVPSSNFGTQTYTCNVDHKPSNTKVDKTVERKCCVECPPCPAPPVAGPSVFLFPPKPKDTLMISRTPEVTCVVVDVSHEDPEVQFNWYVDGVEVHNAKTKPREEQFNSTFRVVSVLTVVHQDWLNGKEYKCKVSNKGLPAPIEKTISKTKGQPREPQVYTLPPSREEMTKNQVSLTCLVKGFYPSDIAVEWESNGQPENNYKTTPPMLDSDGSFFLYSKLTVDKSRWQQGNVFSCSVMHEALHNHYTQKSLSLSPGK
light: DIQMTQSPSSVSASVGDRVTITCRASQGIYSWLAWYQQKPGKAPNLLIYTASTLQSGVPSRFSGSGSGTDFTLTISSLQPEDFATYYCQQANIFPLTFGGGTKVEIKRTVAAPSVFIFPPSDEQLKSGTASVVCLLNNFYPREAKVQWKVDNALQSGNSQESVTEQDSKDSTYSLSSTLTLSKADYEKHKVYACEVTHQGLSSPVTKSFNRGEC
B5: uPA-activated (MC3/MC4) (antibody, not shown: small tags and cut ends)
heavy: QVQLVQSGAEVKKPGASVKVSCKASGYTFTGKYMHWVRQAPGQGLEWMGWINPDSGGTNYAQKFQGRVTMTRDTSIATAYMELNRLRSDDTAVYYCARDQPLGYCTNGVCSYFDYWGQGTLVTVSSASTKGPSVFPLAPCSRSTSESTAALGCLVKDYFPEPVTVSWNSGALTSGVHTFPAVLQSSGLYSLSSVVTVPSSNFGTQTYTCNVDHKPSNTKVDKTVERKCCVECPPCPAPPVAGPSVFLFPPKPKDTLMISRTPEVTCVVVDVSHEDPEVQFNWYVDGVEVHNAKTKPREEQFNSTFRVVSVLTVVHQDWLNGKEYKCKVSNKGLPAPIEKTISKTKGQPREPQVYTLPPSREEMTKNQVSLTCLVKGFYPSDIAVEWESNGQPENNYKTTPPMLDSDGSFFLYSKLTVDKSRWQQGNVFSCSVMHEALHNHYTQKSLSLSPGK
light: DIQMTQSPSSVSASVGDRVTITCRASQGIYSWLAWYQQKPGKAPNLLIYTASTLQSGVPSRFSGSGSGTDFTLTISSLQPEDFATYYCQQANIFPLTFGGGTKVEIKRTVAAPSVFIFPPSDEQLKSGTASVVCLLNNFYPREAKVQWKVDNALQSGNSQESVTEQDSKDSTYSLSSTLTLSKADYEKHKVYACEVTHQGLSSPVTKSFNRGEC
notes: Masked compound with CL2 (MC3 or MC4, printed 'MC3/MC4') after cleavage of the masking moiety by recombinant human uPA

How the values were obtained:
human CD40 on cells [1] = target: T1, human CD40 on cells (human, UniProt P25942 21-277); assay: cell-based or functional assay
human CD40 on cells [2] = target: T1, human CD40 on cells; assay: cell-based or functional assay; remark: listed apart in the source
human CD40 on cells [3] = target: T1, human CD40 on cells; assay: cell-based or functional assay; remark: listed apart in the source
human CD40 on cells [4] = target: T1, human CD40 on cells; assay: cell-based or functional assay; remark: listed apart in the source
human CD40 on cells [5] = target: T1, human CD40 on cells; assay: flow cytometry on Raji cells
Method: (§1) Briefly, Raji cells were seeded in 96-well plates at 1.0×10⁵ cells/well and incubated with serially-diluted test antibodies for 60 minutes at 4° C. in 2% FBS/dPBS buffer. The cells were then washed twice with dPBS and further incubated with secondary allophycocyanin (APC)-conjugated AffiniPure F(ab′)₂ fragment donkey anti-human IgG (H+L) antibody (Jackson ImmunoResearch, Ref. 709-136-149) (1:500) for 30 minutes at 4° C. Finally, the cells were washed twice with dPBS and suspended in FACS buffer for flow cytometry analysis. MFI values vs concentrations were analyzed by FlowJo and data were further fitted with four-parameter non-linear regression to get EC₅₀ values by GraphPad Prism software.

human CD40 on cells [6] = target: T1, human CD40 on cells; assay: flow cytometry on U-2 OS/NFκB cells
Method: as §1, with “cultured U-2 OS/NFκB” for “Raji”

human CD40 on cells [7] = target: T1, human CD40 on cells; assay: flow cytometry on Raji cells; EC50 relative to mAb1
Method: as §1

human CD40 on cells [8] = target: T1, human CD40 on cells; assay: flow cytometry on U-2 OS/NFκB cells; EC50 relative to mAb1
Method: as §1, with “cultured U-2 OS/NFκB” for “Raji”

T1 sequence (P25942 21-277 limits assumed): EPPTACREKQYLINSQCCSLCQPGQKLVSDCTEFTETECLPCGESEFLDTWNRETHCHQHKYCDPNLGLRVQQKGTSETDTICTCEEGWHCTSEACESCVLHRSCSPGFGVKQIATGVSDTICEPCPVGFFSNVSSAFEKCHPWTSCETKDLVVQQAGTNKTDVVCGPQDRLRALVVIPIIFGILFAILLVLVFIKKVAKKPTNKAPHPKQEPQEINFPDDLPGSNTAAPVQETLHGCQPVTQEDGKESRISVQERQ

| Binder | EC50, luciferase reporter assay in U-2 OS/NFκB cells (human CD40 on cells [1]) [nM] | Relative masking efficacy, luciferase reporter assay in U-2 OS/NFκB cells (human CD40 on cells [1]) [fold] | EC50, CD86 expression, primary human B-cell activation assay (human CD40 on cells [2]) [nM] | Relative masking efficacy, CD86 expression, primary human B-cell activation assay (human CD40 on cells [2]) [fold] | EC50, CD83 expression, B-cells of hCD40 KI mice (human CD40 on cells [3]) [nM] | EC50, CD86 expression, B-cells of hCD40 KI mice (human CD40 on cells [3]) [nM] | Relative masking efficacy, CD83 expression, B-cells of hCD40 KI mice (human CD40 on cells [3]) [fold] | Relative masking efficacy, CD86 expression, B-cells of hCD40 KI mice (human CD40 on cells [3]) [fold] | EC50, CD83 expression, MoDC maturation assay (human CD40 on cells [4]) [nM] | EC50, IL-8 release, MoDC maturation assay (human CD40 on cells [4]) [nM] | EC50 (human CD40 on cells [5]) [nM] | EC50 (human CD40 on cells [6]) [nM] | Relative masking efficacy (human CD40 on cells [7]) [fold] | Relative masking efficacy (human CD40 on cells [8]) [fold] |
| --- | --- | --- | --- | --- | --- | --- | --- | --- | --- | --- | --- | --- | --- | --- |
| B1 | 179 | 753 | 40.3 | 231 | 6.7 | 3.57 | 131 | 115 | 56.5 | 19.5 | 476 | 330 | 355 | 220 |
| B2 | 113 | 477 | 28.5 | 176 | 2.31 | 1.46 | 45.2 | 47.2 | 33.1 | 15.1 | 488 | 317 | 364 | 211 |
| B3 | 108 | 457 | 27.9 | 158 | 2.84 | 2.01 | 55.7 | 64.9 | 27.4 | 13.3 | 388 | 197 | 289 | 131 |
| B4 | 0.261 | 1.1 | 0.114 | 0.65 | – | – | – | – | – | – | 1.46 | 1.94 | 1.1 | 1.3 |
| B5 | 0.362 | 1.5 | 0.134 | 0.77 | – | – | – | – | – | – | 2.01 | 2.52 | 1.5 | 1.7 |
